The data set can be described thus: soluble fraction after stress (log2 fold change); higher = more stays soluble; pooled small domains, quantitative proteomics. The note with it: stress: 50 degC. In short, it runs like this:
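After stress at 50°C, the amount of each protein still soluble was measured. This was done on pooled custom libraries of small protein domains, using high-throughput quantitative proteomics. The figure given is a base-two log fold change and stands for aggregation propensity, with higher values meaning more protein stays in solution.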

For the sequence “HMGAKEHLAGETLRMAVELLSEKQGIPAEQALIRFISSPVYDALYDLDTGMWTQGPTRLLEAFEALE”, the “soluble fraction (log2)” value was -1.7.

With “HMHTGLAELTDRERDVLRLIATGMTNAAIGSALAYSPSTIRADTVSIYRKLEVRGRAEAAAVAVAAGLTQP”, the “soluble fraction (log2)” value is -1.26.

For the sequence “HMEDNYYENKINYLFGYLDEADKEISVNSILDFHLAHRTNPEFVFEPKKNTNPLIWKYLSNSNLLY”, the “soluble fraction (log2)” value is -0.0177.

For the sequence “HMGHYGQMTRDLIEKAKTYEEGEEKAALVLTIANLMKRHYLTWNRATVENTLIAEQLKEMSEGALTLPEDV”, the “soluble fraction (log2)” value was -0.51.

For the sequence “HMEVVRVEPGATVRDLGEALGVPPTRIIQILMGLGEMKTVTQTLSTEEIELVAEELGRRVEV”, the “soluble fraction (log2)” value was determined as 0.135.

With “HMISEKEIKIIEDILARWNGKLTWDDFTSKVAKKLNLPSLSKFTLMGYPEIKQAFLTRKQTLK”, the “soluble fraction (log2)” value is -0.328.

For the sequence “HMSGHIPGIKIKGVIFFDKGSSSNHIIATTENNSNLKLRVGETVQGAVLKSIHPNHVIFFHHNQLIEVGIG”, the “soluble fraction (log2)” value is -2.21.

With “HMHLRYTYIYDNENRVTSKEASKWDSTQEAWVPYFKMNVSYVNNEVELSYARWNSKSNAYDSSIKKTI”, the “soluble fraction (log2)” value is -2.36.

On to “HMPALATKDSVLDGRAEVVSYVRDTSVFYLRVRVPQKQGYRSRRIDGVSTLPEAITKALDTYMDLGT”, for which the “soluble fraction (log2)” value is -2.57.

In the case of “HMIVNEQEQTFIKAMRDDDFNTILELKMKGYQPSDNVLKSLQPDISSTTFIAAAKIFQMERMLK”, the “soluble fraction (log2)” value came to 0.218.

For the sequence “HMTRKQTIYEFLRRMKSQHGLDAVYSTEEIANAVGVSRANVSSDLNRLFEEQLVEKLPGWPVKYRA”, the “soluble fraction (log2)” value was 0.0186.

Turning to “HMLNIVTIFEEQFGRPLSPIELNIIKDWKESDYSDEMIVKALKEAVKSQVLNFRYVEGILNNWAKNG”, the “soluble fraction (log2)” value was -0.568.

With “HMDKGMQTMIDNLHKNTGKTLEEWIALVNRANFAKHGEVISFLKEKHGLTHGYANLVAHRLK”, the “soluble fraction (log2)” value was 0.113.

As for “HMHVSLADQAYKTIRTNILNLTYPPGTQLTEAKLASDLNMSRSPVRTAIKMLQADGLLVSDYYKSMTVK”, the “soluble fraction (log2)” value was -0.514.

Regarding “HMENQMIIYIDENDENKRLDSYLSEITPDYSRSKIQNFIKNGNVTVNDSNKKPSYLLKENDKISFELPQQ”, the “soluble fraction (log2)” value came out at 0.00635.

With “HMSTPENLGGRNTAKARISWLENGVKQELESDFPAAEVVKLSSRFGGEVPELTVIRPSLEDIYLKMIG”, the “soluble fraction (log2)” value was 0.0409.

Turning to “HMKTGIGIVEANGGLRLRSQASTSSDVLSTAHNGDNVVVIRQVGNWYLVNYNLKIGYMHSDYITFKE”, the “soluble fraction (log2)” value was -4.82.

Take “HMIHDSAESVVFPFGKYKGYTLAHVIREHPHYTYWIRDNADFSPLWREAVSLALQNRDIGHLNLPHVK”: the “soluble fraction (log2)” value is -0.416.

With “HMGSFAADVGRMVRLGRAKRGISRRKLAADSGISERYLAQIEGGQGNPSVNVLKAIADAISVPVFELLPH”, the “soluble fraction (log2)” value is -1.

Regarding “HMRTLRENIMDYFKQQTIIQKSSVILLPMSKRQLADYFGVQRPSLFRELKKLKEEGIIEINNRTITIK”, the “soluble fraction (log2)” value is -1.27.

Consider “HMVKPKIILADIGMITETDVTLAKASQAVLIAFNVKPSKEAKKLAEDENIKISTYNIIYEVLDFVKKSMSG”, for which the “soluble fraction (log2)” value was 0.12.

Take “HMDAMQAFPNPTVDEIHFVTPTTGRVYNAHGQLVMVLKNAQLVNVRQWSAGQYVIVREDGYAVRWIK”: the “soluble fraction (log2)” value was -1.04.

Consider “HMKLIIVPNLVGQSRRSVEISLQQIGLRIDTVYTEFNPDYPKGTVAWQFPKSGDHIKKGMGLQITVSQG”, for which the “soluble fraction (log2)” value was -0.522.

Turning to “HMNYIGADAAKNMAAADAQVDTANASFSGANLGEKNGLSYYQVDFTANGREYHYAIDAMTGTVIESSSAAS”, the “soluble fraction (log2)” value amounted to 0.124.

For the sequence “HMNGVSNETLIQKSALYEELNQPDLALKMINTALKKDSVNIEILHRLVTLLMSQEKNEEAILYNQKIIDH”, the “soluble fraction (log2)” value turned out to be 0.022.

“HMDLPAEFSKPELETLFKRGKQSGELSLTEVRDALEAAQLPNKKTQTKVLKVLSDNAIHVLMDG”: the “soluble fraction (log2)” value stood at 0.146.

For “HMSGPSDRDLFDEALALLSGSGREPDYHEARIRLGTLVEQFPESKWAEGAKALLSMLDRVSALQV”, the “soluble fraction (log2)” value was 0.246.

On to “HMEHAETDTRERILVVAERLFRQLGYQKTTVADIAKELRMSPANVYRFFDSKKSIHEGVARTL”, for which the “soluble fraction (log2)” value is -0.228.

“HMISASDLQTYLKGMDYPARKEDLIVHAQRNNAPESVIAAIRQFSDRTYQSAADVSEEFGKI”: the “soluble fraction (log2)” value stood at 0.19.

Consider “HMNVRAYKVSKESELTVEEKLEAVRGYGVADLLYVIREFEENPGKYEPEVIKLIVQQLTDKGIM”, for which the “soluble fraction (log2)” value turned out to be 0.199.

On to “HMITMADKIDTALSEMAANNEKINVSQVAKRLGISNSAIYKFNPEKIPDIQTAQKRQKHKAEAIAVGTEN”, for which the “soluble fraction (log2)” value was 0.215.

With “HMAGITLHAEEGRVRIRSQSEGLVKVLDAMGREQASWPLRSKGWWFFLTEGWAPGTYFVKTESGETQRFLV”, the “soluble fraction (log2)” value amounted to 0.0535.

Consider “HMVAGHLQTKKGYYYIVLNMRTDTGARKTKWIATGIPEGGKKNLKQAEELLAKTRYTYEDMVI”, for which the “soluble fraction (log2)” value was -0.792.

On to “HMGHEISLNNSRFLKLLNKTKISISNDDTRHYLNGIFLHLTEAHGRQFLTGVATDSHRLSSSSLEID”, for which the “soluble fraction (log2)” value was -0.0045.

Consider “HMGESVVVPDLRGKTLEEARAILKKVDLDYEINDSTYSKTAVPGTIRDIVPAPGSHVKAGRILFVSING”, for which the “soluble fraction (log2)” value was -0.145.

Take “HMITLKKRRQEAILEIIEKYDLSTQDELLQKLKDSGFDATQATVSRDIKELRLVKTMGANGQYKYAVT”: the “soluble fraction (log2)” value was -0.403.

“HMPLITAIELDSISARSFQFNTQSGSTYFIEGSTDLKSWDVIAEVKATDSTTTYEDHRKIYHEAYFYRVRL”: the “soluble fraction (log2)” value is -2.01.

As for “HMADFIGMNATVTERIFPQGFGRISFVYEGNSISEPARSEDGKEIPTGTSVVVLEVRDKVYIVQPL”, the “soluble fraction (log2)” value is -0.221.

On to “HMHMIDDYLARIGQLIRDARQHRGWTQVQLAEALGTSQSAVNRIERGNQNISLEMIARIGEALGSEIVSLG”, for which the “soluble fraction (log2)” value was -1.62.

In the case of “HMEYQTVEKSEAEQIIQELEKAERLALKVYSKNDIITGISVSDGKSYYFSAELVPMLKNIIENPEIKIL”, the “soluble fraction (log2)” value was -0.623.

For “HMTEQLTLVGKTGVTTTDLRPSGKVEVDGKRYDAVADNGAFISKGAHIKVVRYVTGQVYVVPTD”, the “soluble fraction (log2)” value came to 0.0883.

As for “HMAKRTVPSVAEAIDNFRRQHRRMPSYAEMLPLLGVRSKSVVHFWINKLLENGLLEKDDKGYLTPGS”, the “soluble fraction (log2)” value was -0.00958.

“HMAISEAERARLQTKIKERNKMARWINTNLNPTSKIRNINPAETVRKLMTQDDADSLERSLDAFMEA”: the “soluble fraction (log2)” value is -0.0378.

Regarding “HMEKPYTPPANLNEIQSYEELSKAVQYYNKVKDAATTDADRLKAQQSIDTLEDMRKAWDAASST”, the “soluble fraction (log2)” value was found to be 0.072.

Consider “HMARNHYETLGVGRTATGDEIRKAYRSEAQKHHPDRGGDAERMQSLNEARDTLLDDQARAAYDQELDL”, for which the “soluble fraction (log2)” value is 0.125.

As for “HMDVMNEIQQKAFDIYIQSASLKNDFTPISERALAKKLHDMGLKSSMSAIGRWKKKFGWVQSLQNKVTLA”, the “soluble fraction (log2)” value was -0.128.

For the sequence “HMPAELGVVVRNANLRSGPGTKYAIVGSAPAGTTVRIAGTNKAGDWYHLSSGRWIAAFLVDRN”, the “soluble fraction (log2)” value is -0.941.

Turning to “HMKFPPASDIRRMRKAIDVTQTELAKQSGVSQSTIAKIERGRISASYDTVVKLFETLDEMAK”, the “soluble fraction (log2)” value was -0.141.

“HMSINQTIEGKKQGYWIIYGNMRNLQEYLSNEVIEEGQFKNSRKEGVWRKYFPGGQMKSEITYINGRP”: the “soluble fraction (log2)” value was -0.309.

For “HMKSVFQPIYEDLLSRIQDGRLLPGMPLPSENALAVQYGTSRPTIRRAIGLLVEKSLVIRQPGIGSIVAS”, the “soluble fraction (log2)” value was -1.17.

Take “HMKFPNVGENLRLLRQEMGISLDKASKMTGVSKAMLGQIERGESSPTVSTLWKISSGFKINFTTLLSE”: the “soluble fraction (log2)” value was -2.38.

Turning to “HMVSDAELTSQATTAITAYPGTSVEVKEGQAHLSGTFATEADKQAAIDALKKIQDVKDVHDMATV”, the “soluble fraction (log2)” value is 0.123.

As for “HMKRFSPPSIEEVDSYIREKGYTVDAERFVNFYESKGWYVGKNKMKNWRAAVATWQKEDNKRN”, the “soluble fraction (log2)” value came out at 0.199.

Consider “HMDASFTYSLETHPAGVLVRVDGLEYETPFSILLPQGVHRLEVAGEERFFYLSETTHQFLEID”, for which the “soluble fraction (log2)” value was -0.901.

For the sequence “HMSDKLTLPVQINGVFRYTIEINPSMQKDEIIDLVKNEERTAKYKQDKEIKNVIVVPGKIVNIII”, the “soluble fraction (log2)” value stood at 0.0263.

Consider “HMEELTPLQKYVFDYESDISDEVDMRAIKGLENANDVYDYYANVRGWEGDPDLEDDLDNIYRQVKARFA”, for which the “soluble fraction (log2)” value is 0.0161.

Turning to “HMRPRQDRSEETRDRILDAVVELIAERGLAGVSHRAVADRAGVSLSATSYYFGSKAELERAALEEHYRR”, the “soluble fraction (log2)” value is -0.709.

As to “HMAPSLSEYAYEEIKHAIERGVYPPGAKLITQEIADRLGISRTPVVAAVNRLTAEGYADAVPQHGIFVK”, the “soluble fraction (log2)” value was determined as 0.0573.

With “HMSDTSAIEKIIDEVLSDESSQKAINDIKNGNEKVYGFLVGQVMKKSQGKANPGLVQKMLREKIAK”, the “soluble fraction (log2)” value was found to be 0.212.

With “HMYAPKIETIQVPQDKIREVIGTGGKVIREIVETTGAKIDIGDTGLIKVASSDGEAIRAALDWINSIVAE”, the “soluble fraction (log2)” value was found to be 0.117.

With “HMTALSAREHEVLQLITRGYTADEIAAMLQISRHTALTYVRRIYSKLKVNSKAEAIFEVRQR”, the “soluble fraction (log2)” value was -0.577.

As to “HMRPKVADIDYFDGKTFTIEDGSKHSITTSEAKKIYFYLVKNGYVDDESHVTDAYRSAATSGTLA”, the “soluble fraction (log2)” value was -0.0505.

Take “HMKKISAKQQQILDYISSYSLEHGYPPSVREIGAEMGLRSPSTVHAHLKKLQEAGYLEPNEHKSRALTP”: the “soluble fraction (log2)” value turned out to be 0.128.

As to “HMSEEKLVFSIPDDIETMRIDKAIALETHLSRAQIAELFKENKILLNSKNSKRSEKVKPGDKISLEFIPKI”, the “soluble fraction (log2)” value was -0.00517.

As for “HMSHQIIIVAVELDPSTERIVYYLSKNGISINVLFFKVFQHGDEQFLSRVWLIDPSETQTNAALA”, the “soluble fraction (log2)” value was -0.466.

Regarding “HMKREWKDDDPTVPAGWKVAWTTTSDNRAKIAFMSPDKKIFHSRKSALQHMLAAGTYAQSDIEKMTKGL”, the “soluble fraction (log2)” value is -0.112.

Consider “HMSASLPAAVEDPDLPYRVGAKLRHARWGEGLLVGIQREGSDVIATVHFASVGRKRLSLQYAHLEE”, for which the “soluble fraction (log2)” value was -0.41.

As to “HMDEYFNPETVVHYLRELFDTYRENGGNPFEWFHSTFESVNLNPQNYRKDLITTIEKALIEWIEIFEKQ”, the “soluble fraction (log2)” value was -0.0143.

For “HMEHTPHGVALLRTLMDQYGLKAADLANELGSKSNVSNILNGRRALTVSHIKMLAERFNLPADAFI”, the “soluble fraction (log2)” value is -0.914.

Values taken from the domain aggregation screens of Martell et al. (2025).
